Substrate in data set [1]: O=[N+]([O-])c1ccc(O[C@@H]2OC[C@@H](O[C@@H]3OC[C@@H](O)[C@H](O)[C@H]3O)[C@H](O)[C@H]2O)cc1
Kind of data set: purified protein. In kind it is biochemical, Acetivibrio clariflavus. The conditions noted are these: 50 mM sodium phosphate buffer, pH 6, 40 °C, 0.05–1 mM substrate.

Substrate in data set [2]: O=[N+]([O-])c1ccc(O[C@@H]2OC[C@@H](O[C@@H]3OC[C@@H](O[C@@H]4OC[C@@H](O)[C@H](O)[C@H]4O)[C@H](O)[C@H]3O)[C@H](O)[C@H]2O)cc1
Kind of data set: purified protein. The data set is classed as biochemical, Acetivibrio clariflavus. Conditions: 50 mM sodium phosphate buffer, pH 6, 40 °C, 0.05–1 mM substrate.

B1: AcXyn30B (Acetivibrio clariflavus DSM 19732) (protein)
chain: SYTASVDVNTTYQTLEGFGAAIAWYNDYLTTHPNKNDLYRILFYDSGLDILRLRNQYRNSNNFGYDDMEIVKYGKIMNPNLKVLLSSWSPPSDLKRNGVMNGGTLAKENGSFVYEKFADYWYNSLVAYRAKGIIPDYISIQNEPEYESGDWETCIFRETETSEYPSYAKALDAVYEKIKDLPDMPKILGVESAGIMNNTVQNYARYMDLSKVYGIAHHLYNGGDPYNPDSFNDIFRSLARDFADKPLFMTEYDYGTPFTTAELIHNSLVVEGVSGYFYWDLIWENSQRPLVAIEVPRNPEQWTTKEGYIISDFYYIMQQFAKFTDPGYKRVDASVSSNDIKVSAFVSPDKSKLTMIFINKGYSEHSVALDLKGYSSNKSIIYRTLPEGNERFKKVGSLFGNTVTLPARSVVTVALGVDDEEQIPPQLPTPTPKPESRSAYDIIQAEDYNEMYGIQCETIADDGNKNVAYIENGDYILFKGVDFGTGATGFEASVASAESGGAIEIRLDELYGTTVVKIPVSGTGDWHNYVTVKADIPEIKGKHDLYLVFTGGGGYLFNIDWFVFTGGTVENPVPEVIYGDVNGDGDFNSIDYGYLKMYLLGQIKEFPSKDGMIAADVNGDGTVNSIDYAYMKMRLLGQISKFPVE
notes: purchased from NZYTech (CZ0917); full-length 673 aa: signal peptide 28 aa, GH30 29-446, CBM6 469-593, dockerin 602-673
In general, Km refers to the substrate concentration at which the rate is half of its maximum. A word on the kcat: it is the maximal rate divided by the concentration of active sites. One may read the kcat/Km as the second-order rate constant that governs catalysis at low substrate concentration. Turning to B1, in data set [1], the Km was 210 µM, the turnover number (kcat) came to 7.4 s⁻¹ and the kcat/Km is 34900 M⁻¹ s⁻¹. Also, in data set [2], the Michaelis-Menten constant (Km) amounted to 230 µM, the kcat is 10.4 s⁻¹ and the kcat/Km was 56100 M⁻¹ s⁻¹.

The values above are taken from PMC11058611, “Characterization of a novel GH30 non-specific endoxylanase AcXyn30B from Acetivibrio clariflavus” (Applied Microbiology and Biotechnology, 2024).
